Target: E. coli RNAP as used in the ITC experiments (E. coli) (UniProt P0A7Z4)
Experiment: ITC

Substance: Escherichia phage protein EP1 (from UniProt A0A0N9RSC1 1-107) (natural protein)
- Kd: 34 nM
